Assay results taken from patent publication US20170119790A1, “Agents, Uses and Methods” (CYTOGUIDE A/S, priority 2009, published 2017).

Legend:
[1] = system: non-transfected Flp-In CHO cells; assay: Cellular binding and uptake of 125I-labeled anti-CD163, control cells; format: cell-based, Chinese hamster; details: 125I-labelled mAb
From the text: Endocytosis of ^125I-labeled anti-CD163 was investigated in CD163 transfected Flp-In Chinese hamster ovary (CHO) cells and mock-transfected Flp-In as described (Madsen, M., Moller, H. J., Nielsen, M. J., Jacobsen, C., Graversen, J. H., van den Berg, T. and Moestrup, S. K. (2004) Molecular characterization of the haptoglobin.hemoglobin receptor CD163. Ligand binding properties of the scavenger receptor cysteine-rich domain region. J. Biol. Chem., 279, 51561-51567.)

[2] = biological target: T1, human CD163 LKIHEK containing mutants (VKVQEE-->LKIHEK and double mutant) (Homo sapiens, UniProt Q86VB7, E71K/Q69H/V66L/V68I); assay: Western blotting of human CD163 and knock out mutants; format: binding
T1 construct: a pcDNA5-FRT-humanCD163 plasmid harboring the full length human CD163 cDNA; expressed in transfected cells; host or cells: HEK 293, transient
T1 sequence (Q86VB7 42-1156 V66L/V68I/Q69H/E71K): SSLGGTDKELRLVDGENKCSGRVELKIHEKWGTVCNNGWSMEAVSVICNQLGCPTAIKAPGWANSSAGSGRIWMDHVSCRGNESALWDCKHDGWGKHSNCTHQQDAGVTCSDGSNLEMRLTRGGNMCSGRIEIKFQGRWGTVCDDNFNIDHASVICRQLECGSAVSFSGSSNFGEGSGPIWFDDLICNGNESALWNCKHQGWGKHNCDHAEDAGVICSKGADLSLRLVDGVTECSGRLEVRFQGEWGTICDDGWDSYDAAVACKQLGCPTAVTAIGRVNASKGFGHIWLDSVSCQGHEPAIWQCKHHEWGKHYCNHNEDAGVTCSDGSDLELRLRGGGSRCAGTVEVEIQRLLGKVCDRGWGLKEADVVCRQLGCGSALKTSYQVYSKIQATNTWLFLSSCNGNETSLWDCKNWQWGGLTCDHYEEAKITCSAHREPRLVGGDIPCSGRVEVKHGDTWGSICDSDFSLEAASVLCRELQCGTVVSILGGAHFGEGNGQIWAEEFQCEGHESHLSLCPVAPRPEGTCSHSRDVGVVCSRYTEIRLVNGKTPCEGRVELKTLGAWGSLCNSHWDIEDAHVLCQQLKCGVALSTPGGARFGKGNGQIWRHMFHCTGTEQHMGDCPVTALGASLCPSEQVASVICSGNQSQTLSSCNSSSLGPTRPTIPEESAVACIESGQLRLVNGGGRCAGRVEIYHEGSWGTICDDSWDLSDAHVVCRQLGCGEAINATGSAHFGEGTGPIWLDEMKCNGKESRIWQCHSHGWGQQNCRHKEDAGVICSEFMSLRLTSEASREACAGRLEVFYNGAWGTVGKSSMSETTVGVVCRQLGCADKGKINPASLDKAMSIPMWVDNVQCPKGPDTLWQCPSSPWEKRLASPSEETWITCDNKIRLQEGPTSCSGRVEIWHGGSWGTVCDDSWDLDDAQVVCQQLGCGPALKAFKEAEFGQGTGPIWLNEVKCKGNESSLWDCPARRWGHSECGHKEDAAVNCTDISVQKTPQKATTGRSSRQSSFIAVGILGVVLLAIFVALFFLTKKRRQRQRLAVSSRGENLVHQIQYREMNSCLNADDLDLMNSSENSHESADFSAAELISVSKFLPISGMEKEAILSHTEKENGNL
From the text: (§1) For the mutant generation the Site-directed Ligation Independent Mutagenesis (SLIM) method was used (1). Primers are listed in the primer table. The template for the generation of the two first mutants was a pcDNA5-FRT-humanCD163 plasmid harboring the full length human CD163 cDNA. The primers LKI FT, RT, F, and R were used to generate the mutant plasmid pcDNA5-FRT-humanCD163 (VKVQEE-->LKIHEK). The primers R60D FT, RT, F, and R were used to generate the mutant plasmid pcDNA5-FRT-humanCD163 (R60D). Generation of a double mutant was done by performing a SLIM reaction on pcDNA5-FRT-humanCD163 (VKVQEE-->LKIHEK) with the primers R60D FT, RT, F, and R.
(§2) Each cell pellet was added 1 ml lysis buffer (10 mM Tris pH 8, 140 mM NaCl, 15 mM MgSO4, 1% Triton X-100) and incubated for 15 min at 4 °C with rotation. After centrifugation for 30 min at 6000 rpm the supernatants were sterile filtered.
(§3) 90 μl of each of the supernatants were added 30 μl of 4×LDS sample buffer. 3×20 μl samples of each supernatant and 8 μl SeeBlue plus2 prestained marker were loaded on NuPage 4-12% Bis-Tris-Gels (Invitrogen, Taastrup, Denmark) and the SDS-PAGEs were run with MOPS running buffer according to instructions of the manufacturer (200 V constant for 50 min). Blotting to PVDF membranes (Invitrogen, Taastrup, Denmark) was done on an iBLOT device according to instructions of the manufacturer. […]

[3] = biological target: T2, human CD163 R60D (Homo sapiens, UniProt Q86VB7, R112D); assay: as above; format: binding
T2 construct: a pcDNA5-FRT-humanCD163 plasmid harboring the full length human CD163 cDNA; expressed in transfected cells; host or cells: HEK 293, transient
T2 sequence (Q86VB7 42-1156 R112D): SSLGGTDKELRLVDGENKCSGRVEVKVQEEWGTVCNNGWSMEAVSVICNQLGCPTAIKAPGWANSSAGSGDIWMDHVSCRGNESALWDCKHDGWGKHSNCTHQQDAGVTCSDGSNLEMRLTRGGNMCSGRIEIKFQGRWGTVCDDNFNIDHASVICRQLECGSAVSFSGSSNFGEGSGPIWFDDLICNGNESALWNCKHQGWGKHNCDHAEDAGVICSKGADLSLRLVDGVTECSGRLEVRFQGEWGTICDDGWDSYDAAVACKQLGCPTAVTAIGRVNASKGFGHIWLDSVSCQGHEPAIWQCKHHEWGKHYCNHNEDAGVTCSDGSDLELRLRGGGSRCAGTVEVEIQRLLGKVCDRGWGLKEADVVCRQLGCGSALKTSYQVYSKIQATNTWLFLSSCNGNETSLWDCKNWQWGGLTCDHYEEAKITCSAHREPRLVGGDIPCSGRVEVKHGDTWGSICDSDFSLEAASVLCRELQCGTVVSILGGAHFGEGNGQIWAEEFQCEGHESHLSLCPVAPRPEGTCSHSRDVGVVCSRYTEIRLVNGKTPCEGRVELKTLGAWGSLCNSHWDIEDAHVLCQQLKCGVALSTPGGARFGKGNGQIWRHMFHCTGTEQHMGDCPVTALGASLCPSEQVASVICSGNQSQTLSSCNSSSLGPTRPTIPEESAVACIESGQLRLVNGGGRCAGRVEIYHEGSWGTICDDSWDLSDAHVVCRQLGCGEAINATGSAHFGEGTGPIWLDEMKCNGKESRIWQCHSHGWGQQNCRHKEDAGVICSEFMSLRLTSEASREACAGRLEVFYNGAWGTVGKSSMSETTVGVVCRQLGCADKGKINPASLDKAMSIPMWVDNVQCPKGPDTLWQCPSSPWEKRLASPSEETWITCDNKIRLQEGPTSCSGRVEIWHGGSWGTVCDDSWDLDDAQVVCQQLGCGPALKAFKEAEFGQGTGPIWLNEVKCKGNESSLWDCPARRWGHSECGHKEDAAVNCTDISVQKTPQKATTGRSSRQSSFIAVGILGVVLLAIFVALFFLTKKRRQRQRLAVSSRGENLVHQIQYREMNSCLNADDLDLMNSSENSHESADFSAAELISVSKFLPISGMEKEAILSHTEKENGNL
From the text: as §1, §2, §3

[4] = system: TNF production of pro-inflammatory macrophages; assay: Inhibition of LPS induction of TNF production in in vitro matured pro-inflammatory macrophages; format: cell-based, human; details: compared with free dexamethasone / buffer, FIG. 30-31
Description: Monocytes were obtained from MNC after isolation using Dynal Monocyte Negative
Monocytes were resuspended in RMPI 1640 medium (Sigma-Aldrich, Brøndby, Denmark) containing 20% fetal calf serum (FCS) supplemented with 100 ng/ml M-CSF (GenScript Corporation, New Jersey, USA) and penicillin/streptomycin (pen/strep) for 7 days. The first 3 days in Tissue Culture Flasks at 37° C. and 5% CO2. The monocytes were then detached from the flask by flushing and scraping. The monocytes were divided into smaller portions and further grown for four days. 0.9×10^5 cells per well were grown in 96 well tissue culture plates for TNF CBA use.
Subsequently, the macrophages were activated in RMPI 1640 containing 5% FCS, 1 ug/ml lipopolysaccaride (LPS) (Sigma-Aldrich, Brøndby, Denmark) and 20 ng/ml INF-gamma (Genscript Corporation, New Jersey, USA) for 18 hours making them pro-inflammatory.
The pro-inflammatory macrophages were stimulated with RMPI160, 5% FCS, 1 ug/ml LPS and 20 ng/ml INF-gamma containing either dexamethasone, Ab-dexamethasone or no drug.
To detect the change in soluble TNF-alpha concentration we used the Cytometry Bead Array Kit (BD Biosciences, New Jersey, USA). The media from the in vitro stimulated macrophages (described earlier) grown in 96 well tissue culture plates were analyzed according to the manufacturer's protocol.

B1: MAC2-158: anti-human CD163 murine mAb, binds SRCR domain 1, IQ Products; VH SEQ ID NO: 1, VL SEQ ID NO: 2 (antibody, V domains shown)
VH: DVQLQESGPGLVKPSQSLSLTCTVTGYSITSDYAWNWIRQFPGNKLEWMGYITYSGITNYNPSLKSQISITRDTSKNQFFLQLNSVTTEDTATYYCVSGTYYFDYWGQGTTLTVSS
VL: SVVMTQTPKSLLISIGDRVTITCKASQSVSSDVAWFQQKPGQSPKPLIYYASNRYTGVPDRFTGSGYGTDFTFTISSVQAEDLAVYFCGQDYTSPRTFGGGTKLEIKRA
modifications: Mac2-158 VH; Mac2-158 VL
percentage of cell-associated radioactivity reached [1]: 1.37% | binding in western blot [2]: No binding was detected | binding in western blot [3]: very weak | effect on TNF production of macrophages [4]: no effect different from buffer
